Assays:
human WISE K121A = molecular target: T1, human WISE K121A (human, UniProt Q6X4U4 24-206); experiment: capture ELISA, WISE mutant supernatant (FIG. 25)
T1 construct: Alanine mutant of loop 2, used as supernatant of transiently transfected mammalian cells
T1 chain: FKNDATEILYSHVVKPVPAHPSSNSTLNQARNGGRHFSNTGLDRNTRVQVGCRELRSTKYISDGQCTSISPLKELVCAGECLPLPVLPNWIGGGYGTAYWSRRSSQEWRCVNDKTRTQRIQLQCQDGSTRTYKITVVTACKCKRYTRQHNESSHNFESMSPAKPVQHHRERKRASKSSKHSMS
Description: (§1) Relative capture of individual WISE mutant proteins or wild type proteins by either neutralizing antibodies or non-neutralizing antibodies was compared to assess whether any of these single amino acid changes affects the binding of an antibody to WISE protein. The bound WISE proteins were then detected using HRP-conjugated affinity-purified polyclonal antibody against WISE.
(§2) Purified anti-WISE antibodies (0.5 ug/ml) were added onto high-binding ELISA plates pre-coated with 1 ug/ml of goat anti-mouse IgG Fc (Pierce). Plates were incubated for 1 hour in room temperature. Plates were then washed 4× with Wash Buffer. Subsequently alanine scanned WISE loop-2 mutant supernatants from transient transfection cultures (100× diluted) were added and incubated for 1 hour in room temperature. After 4× wash, rabbit anti-WISE Pab-biotin (50 ng/ml)+NeutrAvidin-HRP (Pierce, Cat #31001) were added onto the plates and incubated for 1 hour in room temperature. Plates were again washed 4× with Wash Buffer. Binding was analyzed using 1-Step Ultra TMB-ELISA substrate (Pierce; Cat #34028) according to the manufacturer's instructions.

human WISE I114A [1] = molecular target: T2, human WISE I114A (human, UniProt Q6X4U4 24-206); experiment: capture ELISA, WISE mutant supernatant (FIG. 25)
T2 construct: Alanine mutant of loop 2, used as supernatant of transiently transfected mammalian cells
T2 chain: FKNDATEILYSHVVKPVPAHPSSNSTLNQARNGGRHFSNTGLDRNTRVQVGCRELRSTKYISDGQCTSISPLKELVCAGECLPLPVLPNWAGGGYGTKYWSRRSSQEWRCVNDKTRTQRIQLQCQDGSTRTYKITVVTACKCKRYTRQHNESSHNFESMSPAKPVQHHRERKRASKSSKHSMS
Description: as §1, §2

human WISE G115A [2] = molecular target: T3, human WISE G115A (human, UniProt Q6X4U4 24-206); experiment: capture ELISA, WISE mutant supernatant (FIG. 25)
T3 construct: Alanine mutant of loop 2, used as supernatant of transiently transfected mammalian cells
T3 chain: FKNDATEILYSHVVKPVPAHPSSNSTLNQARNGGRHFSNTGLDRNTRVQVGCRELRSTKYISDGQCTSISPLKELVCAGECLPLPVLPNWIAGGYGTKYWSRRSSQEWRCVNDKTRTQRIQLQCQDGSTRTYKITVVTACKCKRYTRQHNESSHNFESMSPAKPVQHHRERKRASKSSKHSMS
Description: as §1, §2

human WISE N112A [3] = molecular target: T4, human WISE N112A (human, UniProt Q6X4U4 24-206); experiment: capture ELISA, WISE mutant supernatant (FIG. 25)
T4 construct: Alanine mutant of loop 2, used as supernatant of transiently transfected mammalian cells
T4 chain: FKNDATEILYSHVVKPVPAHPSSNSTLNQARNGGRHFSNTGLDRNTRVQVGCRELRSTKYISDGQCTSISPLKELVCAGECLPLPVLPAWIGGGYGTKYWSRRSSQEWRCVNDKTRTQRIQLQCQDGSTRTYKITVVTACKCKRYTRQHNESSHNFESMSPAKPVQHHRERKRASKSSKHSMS
Description: as §1, §2

human WISE [4] = molecular target: T5, human WISE (human, UniProt Q6X4U4 24-206); experiment: murine hybridoma antibodies; assay not given
T5 construct: Recombinant protein secreted from mammalian cells; also called hWISE; huWISE
T5 sequence: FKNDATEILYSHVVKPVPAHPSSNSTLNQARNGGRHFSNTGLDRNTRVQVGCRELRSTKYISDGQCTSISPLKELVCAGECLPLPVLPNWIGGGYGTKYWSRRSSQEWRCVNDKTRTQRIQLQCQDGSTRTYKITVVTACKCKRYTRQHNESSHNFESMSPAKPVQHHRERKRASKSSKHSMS

human WISE [5] = molecular target: T5, human WISE; experiment: capture ELISA binding profile (FIG. 23)
Description: as §1, §2

human WISE G115A [6] = molecular target: T3, human WISE G115A; experiment: capture ELISA, WISE mutant supernatant (FIG. 23)
Description: as §1, §2

human WISE G117A [7] = molecular target: T6, human WISE G117A (human, UniProt Q6X4U4 24-206); experiment: capture ELISA, WISE mutant supernatant (FIG. 23)
T6 construct: Alanine mutant of loop 2, used as supernatant of transiently transfected mammalian cells
T6 chain: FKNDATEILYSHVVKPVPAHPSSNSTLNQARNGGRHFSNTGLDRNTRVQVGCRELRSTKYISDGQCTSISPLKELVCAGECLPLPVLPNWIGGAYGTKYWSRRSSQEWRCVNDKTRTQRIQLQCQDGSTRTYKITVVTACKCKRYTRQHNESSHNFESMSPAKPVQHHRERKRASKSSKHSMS
Description: as §1, §2

human WISE [8] = molecular target: T5, human WISE; experiment: capture ELISA binding profile (FIG. 24)
Description: as §1, §2

human WISE G115A [9] = molecular target: T3, human WISE G115A; experiment: capture ELISA, WISE mutant supernatant (FIG. 24)
Description: as §1, §2

human WISE G117A [10] = molecular target: T6, human WISE G117A; experiment: capture ELISA, WISE mutant supernatant (FIG. 24)
Description: as §1, §2

human WISE I114A [11] = molecular target: T2, human WISE I114A; experiment: capture ELISA, WISE mutant supernatant (FIG. 26)
Description: as §1, §2

human WISE N112A [12] = molecular target: T4, human WISE N112A; experiment: capture ELISA, WISE mutant supernatant (FIG. 26)
Description: as §1, §2

human WISE [13] = molecular target: T5, human WISE; experiment: capture ELISA binding profile (FIG. 26)
Description: as §1, §2

[14] = molecular target: T7, biotinylated recombinant human WISE (human, UniProt Q6X4U4 24-206, biotinylated (site not stated)); experiment: Octet QK, crude conditioned medium, streptavidin biosensors with biotinylated human WISE
T7 construct: Same protein as m1, biotinylated; Used in the AlphaScreen with LRP6, in phage panning and on the Octet streptavidin biosensors; also called biotinylated huWise; biotinylated human WISE
T7 sequence: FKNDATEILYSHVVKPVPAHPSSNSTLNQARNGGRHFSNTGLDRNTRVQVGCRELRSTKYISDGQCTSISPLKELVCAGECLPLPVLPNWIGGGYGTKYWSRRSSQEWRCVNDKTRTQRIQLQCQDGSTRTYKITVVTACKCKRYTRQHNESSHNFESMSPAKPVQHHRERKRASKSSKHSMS
Description: Affinity maturation was performed on D14 IgG2 in order to improve the inhibitory activity. Every residue in all CDRs of heavy chain (31 positions) and light chain (29 positions) was mutated by randomized mutagenesis. Seven heavy chain mutations in 5 positions and ten light chain mutations in 6 positions that improved the binding to human WISE were identified by affinity measurement on Octet QK (ForteBio) using crude condition medium samples and streptavidin Biosensors coated with biotinylated human WISE. L34, L36, H66 and H127 were four top single-residue mutants. Beneficial heavy chain mutation and light chain mutation were paired in matrix by transient transfection in 293 6E cells to yield further improved double mutants (DM, one mutation in heavy chain and one in light chain). Ten DM mutants were selected. Two best heavy chain mutations (H66 and H127) were combined by overlapping PCR. The resulted heavy chain with double mutations was paired with L34 or L36 to yield two triple mutants (TM1 and TM2).

B1: Ab-AA (antibody, V domains shown)
VH: EVQLQQSGAELVRSGASVKLSCTASGFNIKDYYIHWMKQRPEQGLEWIGWIDPENGDTESAPKFQGKATMTADTSSNTAYLHLSSLTFEDTAVYYCNAEGYGSRHWYFDVWGAGTTVTVSS
VL: DIVMSQSPSSLAVSAGEKVTMSCKSSQSLLNSRTRKNYLAWYQQKPGQSPKLLIYWASTRQSGVPDRFTGSGSGTDFTLTISSVQAEDLAVYYCKQSYNLLTFGAGTKLELK
notes: Murine monoclonal antibody purified from hybridoma; also called WISE Loop 2 Mab (Ab-AA)
binding result (human WISE K121A): binds | binding result (human WISE I114A [1]): binds | binding result (human WISE G115A [2]): binds | binding result (human WISE N112A [3]): binds | binding result (human WISE [4]): binds

B2: Ab-AI (antibody, V domains shown)
VH: QVTLKESGPGILQPSQTLSLTCSFSGFSLTTSGMGVSWIRQPSGGSLEWLAHIFWDDDKRYNPSLTSRLTISKDASRNQVFLKISSVDTADAATYYCARGGDYYSTGFGFDYWGQGTLVTVSA
VL: DIVVSQAPSSLAVSVGEKIIMSCKSSQSLLHSSNQRNYLAWYQQKPGQSPKLLISWASIRESGVPDRFTGSGSGTDFTLTISSVKTEDLAVYYCHQYYSYSTFGAGTKLELK
notes: Murine anti-WISE monoclonal antibody; also called WISE Loop 2 Mab (Ab-AI)
binding result (human WISE [5]): binds | binding result (human WISE G115A [6]): binds | binding result (human WISE G117A [7]): binds

B3: Ab-AC (antibody, V domains shown)
VH: QVTLKESGPEILQPSQTLSLTCSFSGFSLTTSGMGVSWIRQPSGGSLEWLAHIFWDDDKRYNPSLTSRLTISKDAPRNQVFLKITSVDTADAATYYCARGGDYYSTGFGFDYWGQGTLVTVSA
VL: DIVVSQAPSSLAVSVGEKIIMSCKSSQSLLHSSNRRNYLAWYQQKPGQSPKLLISWASIRESGVPDRFTGSGSGTDFTLTISSVKTEDLAIYYCHQYYTYSTFGAGTKLELK
notes: Murine monoclonal antibody purified from hybridoma; also called WISE Loop 2 Mab (Ab-AC)
binding result (human WISE [8]): binds | binding result (human WISE G115A [9]): binds | binding result (human WISE G117A [10]): binds

B4: Ab-AH (antibody, V domains shown)
VH: EVQLQQSGAELVRSGASVRLSCTASGFNIKDFYMHWLKQRPEQGLEWIGWIDPENGDTESAPKFQGKATMTADTSSNTAYLQLSSLTSEDTAVYCCNAEGYDNSHWYFDVWGAGTTVTVSS
VL: DIVMSQSPSSLAVSAGEKVTMSCKSSQSLLNSRTRKNYLAWYQQKPGQSPKLLIYWASTRKSGVPDRFIGSGSGTDFTLTISSVQAEDLAVYYCKQSYNLVTFGAGTKLELK
notes: Murine anti-WISE monoclonal antibody; also called WISE Loop 2 Mab (Ab-AH)
binding result (human WISE I114A [11]): binds | binding result (human WISE N112A [12]): binds | binding result (human WISE [13]): binds

B5: Ab-AD (antibody, V domains shown)
VH: EVQLQQSGTVLARPGASVKMSCKASGYTFTSYWMHWVKQRPGQGLEWIVAIYPGNSDTNYNQKFKGKAKLTAVTSTSTAYMELNSLTNEDSAVYYCVRGFITAPYFDYWGQGTTLTVSS
VL: DIQMTQSPASLAASVGESITITCQASENIYFSLAWYQQKQGRSPQLLIYHAKSLEDGVPSRFSGSGSGTQYSMKINSMQPEDTATYFCKQAYDHPFTFGTGTKLEMK
notes: Murine monoclonal antibody from hybridoma
binding result (human WISE [4]): binds

B6: D14 IgG2 single-residue mutant L34 (antibody, V domains shown)
VH: EVQLLESGGGLVQPGGSLRLSCAASGFTFSLYTMQWVRQAPGKGLEWVSGIGSSGGGTSYADSVKGRFTISRDNSKNTLYLQMNSLRAEDTAVYYCARGVSSWFFEYWGQGTLVTVSS
VL: QYELTQPPSVAVSPGKTASITCAGDELGGKYAAWYQQKPGQAPVLVVYDDSDRPSGIPERFSGSNSGNTATLTISRVEAGDEADYYCQVWDRSSYHVVFGGGTKLTVLG
notes: L34 is a mutant label, not a residue number; Tested as crude conditioned medium; also called L34(LC CDR1-7G)
binding result [14]: binds

B7: D14 IgG2 single-residue mutant H66 (antibody, V domains shown)
VH: EVQLLESGGGLVQPGGSLRLSCAASGFTFSLYTMQWVRQAPGKGLEWVSGIGSSGGPTSYADSVKGRFTISRDNSKNTLYLQMNSLRAEDTAVYYCARGVSSWFFEYWGQGTLVTVSS
VL: QYELTQPPSVAVSPGKTASITCAGDELGNKYAAWYQQKPGQAPVLVVYDDSDRPSGIPERFSGSNSGNTATLTISRVEAGDEADYYCQVWDRSSYHVVFGGGTKLTVLG
notes: H66 is a mutant label, not a residue number; Tested as crude conditioned medium; also called H66(HC CDR2-8P)
binding result [14]: binds

B8: D14 IgG2 single-residue mutant H127 (antibody, V domains shown)
VH: EVQLLESGGGLVQPGGSLRLSCAASGFTFSLYTMQWVRQAPGKGLEWVSGIGSSGGGTSYADSVKGRFTISRDNSKNTLYLQMNSLRAEDTAVYYCARGVSGWFFEYWGQGTLVTVSS
VL: QYELTQPPSVAVSPGKTASITCAGDELGNKYAAWYQQKPGQAPVLVVYDDSDRPSGIPERFSGSNSGNTATLTISRVEAGDEADYYCQVWDRSSYHVVFGGGTKLTVLG
notes: H127 is a mutant label, not a residue number; Tested as crude conditioned medium; also called H127(HC CDR3-4G)
binding result [14]: binds

B9: D14-L36 (antibody, human IgG2, lambda, V domains shown)
VH: EVQLLESGGGLVQPGGSLRLSCAASGFTFSLYTMQWVRQAPGKGLEWVSGIGSSGGGTSYADSVKGRFTISRDNSKNTLYLQMNSLRAEDTAVYYCARGVSSWFFEYWGQGTLVTVSS
VL: QYELTQPPSVAVSPGKTASITCAGDELGSKYAAWYQQKPGQAPVLVVYDDSDRPSGIPERFSGSNSGNTATLTISRVEAGDEADYYCQVWDRSSYHVVFGGGTKLTVLG
notes: Tested as crude conditioned medium; also called L36(LC CDR1-7S); LC-CDR1-7 N->S
binding result [14]: binds
